B1: F13ExonS-biotin synthetic peptide (peptide)
peptide: MAAAIASSLIRQKRQAREREKSNACKCVSSPSKGKTSCDKNKLNVFSRVKLFGSKKRRRRRPE
modifications: not fully specified (C-terminus)
B2: FLAG-LRR recombinant protein (LRR domain of LRRC37B, amino acids 468-841) (domain or fragment)
chain: AAAEKTRAPHPDQVQTLHRSLTEVTGPPTKLESSQDSLVQSETAPEEQKASTSTNICELCTCGDETLSCVGLSPKQRLRQVPVPEPDTYNGIFTTLNFQGNYISYLDGNVWKAYSWTEKLILSENYLTELPKDSFEGLLYLQYLDLSCNKIRYIERQTFESLPFLQYINLGCNLITKLSLGTFQAWHGMQFLHNLILNRNPLTTVEDPYLFELPALKYLDMGTTHITLTTLKNILTMTVELEKLILPSHMACCLCQFKNSIEAVCKTVKLHCNTACLTNSIHCPEEASVGNPEGAFMKMLQARKQHMSTQLTIESEAPSDSSGINLSGFGGDQLEIQLTEQLRSLIPNEDVRKFMSHVIRTLKMECSETHVQGSCAKLSTG

Assays:
[1] = biological target: pdisplay-LRRC37B-LRR_ECTO (amino acids 468-841) (human, UniProt Q96QE4 468-841); experiment: cell-surface binding assay
[2] = biological target: Nav1.6 (SCN8A), transfected cDNA (UniProt Q9UQD0 1-1980); experiment: cell-surface binding assay
[3] = biological target: pdisplay-LRRC37B_ECTO (amino acids 28-905) (human, UniProt Q96QE4 28-905); experiment: cell-surface binding assay
[4] = biological target: T1, 5/6FAM-F13ExonS synthetic peptide (5/6FAM on the N-terminus); experiment: fluorescence polarisation
T1 peptide: B1 peptide

Sequence of Nav1.6 (SCN8A), transfected cDNA (Q9UQD0 whole entry, the tested form may be a part): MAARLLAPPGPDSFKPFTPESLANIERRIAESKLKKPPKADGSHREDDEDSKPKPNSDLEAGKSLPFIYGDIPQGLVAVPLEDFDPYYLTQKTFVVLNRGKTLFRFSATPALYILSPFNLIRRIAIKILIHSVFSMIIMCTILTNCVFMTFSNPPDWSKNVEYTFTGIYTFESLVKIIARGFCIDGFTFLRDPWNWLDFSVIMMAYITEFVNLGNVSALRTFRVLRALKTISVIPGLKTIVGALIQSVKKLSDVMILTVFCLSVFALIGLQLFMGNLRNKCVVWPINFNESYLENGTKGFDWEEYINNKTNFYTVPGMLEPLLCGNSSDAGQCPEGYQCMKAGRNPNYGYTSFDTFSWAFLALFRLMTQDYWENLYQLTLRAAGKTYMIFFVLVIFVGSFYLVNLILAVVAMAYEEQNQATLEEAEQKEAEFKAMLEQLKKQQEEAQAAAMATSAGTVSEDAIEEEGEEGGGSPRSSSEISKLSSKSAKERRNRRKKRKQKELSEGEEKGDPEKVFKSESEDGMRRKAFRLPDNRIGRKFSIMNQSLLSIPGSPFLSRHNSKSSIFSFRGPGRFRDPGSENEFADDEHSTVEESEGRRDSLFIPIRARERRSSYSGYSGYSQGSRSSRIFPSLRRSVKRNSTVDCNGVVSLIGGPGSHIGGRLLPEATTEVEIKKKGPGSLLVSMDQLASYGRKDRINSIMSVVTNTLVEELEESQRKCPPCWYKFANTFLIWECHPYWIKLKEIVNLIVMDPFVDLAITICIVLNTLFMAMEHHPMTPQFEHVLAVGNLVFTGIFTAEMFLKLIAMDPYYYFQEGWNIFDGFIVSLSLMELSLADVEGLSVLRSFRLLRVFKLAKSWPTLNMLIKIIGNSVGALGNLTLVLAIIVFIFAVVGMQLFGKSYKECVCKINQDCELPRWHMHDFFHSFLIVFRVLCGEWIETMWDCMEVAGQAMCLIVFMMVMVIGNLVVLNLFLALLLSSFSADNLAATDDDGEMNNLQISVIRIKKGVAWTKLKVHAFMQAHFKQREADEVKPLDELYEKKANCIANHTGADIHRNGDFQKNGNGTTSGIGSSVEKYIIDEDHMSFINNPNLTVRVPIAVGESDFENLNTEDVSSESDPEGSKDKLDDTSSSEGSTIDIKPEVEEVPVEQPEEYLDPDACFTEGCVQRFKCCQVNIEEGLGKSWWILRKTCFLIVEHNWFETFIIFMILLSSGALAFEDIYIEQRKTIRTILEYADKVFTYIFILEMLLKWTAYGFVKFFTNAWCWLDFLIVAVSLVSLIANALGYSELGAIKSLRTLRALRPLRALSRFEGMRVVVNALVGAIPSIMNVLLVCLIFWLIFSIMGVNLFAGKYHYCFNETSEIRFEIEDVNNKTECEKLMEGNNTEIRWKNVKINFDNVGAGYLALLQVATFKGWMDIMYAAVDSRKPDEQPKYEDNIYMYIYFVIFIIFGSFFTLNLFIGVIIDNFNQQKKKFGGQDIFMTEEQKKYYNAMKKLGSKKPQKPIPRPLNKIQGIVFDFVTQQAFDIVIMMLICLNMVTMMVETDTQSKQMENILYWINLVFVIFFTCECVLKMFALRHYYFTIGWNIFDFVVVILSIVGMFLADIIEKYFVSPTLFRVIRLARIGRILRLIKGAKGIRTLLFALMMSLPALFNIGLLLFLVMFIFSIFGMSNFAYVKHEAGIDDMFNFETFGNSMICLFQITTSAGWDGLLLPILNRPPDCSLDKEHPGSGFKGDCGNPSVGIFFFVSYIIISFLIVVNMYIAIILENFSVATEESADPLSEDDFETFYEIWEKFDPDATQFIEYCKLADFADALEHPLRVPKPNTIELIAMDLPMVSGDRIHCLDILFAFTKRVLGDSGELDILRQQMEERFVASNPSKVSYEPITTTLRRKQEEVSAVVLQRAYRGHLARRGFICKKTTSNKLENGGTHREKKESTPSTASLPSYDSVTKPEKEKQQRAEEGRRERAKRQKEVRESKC
Sequence of pdisplay-LRRC37B_ECTO (amino acids 28-905) (Q96QE4 28-905): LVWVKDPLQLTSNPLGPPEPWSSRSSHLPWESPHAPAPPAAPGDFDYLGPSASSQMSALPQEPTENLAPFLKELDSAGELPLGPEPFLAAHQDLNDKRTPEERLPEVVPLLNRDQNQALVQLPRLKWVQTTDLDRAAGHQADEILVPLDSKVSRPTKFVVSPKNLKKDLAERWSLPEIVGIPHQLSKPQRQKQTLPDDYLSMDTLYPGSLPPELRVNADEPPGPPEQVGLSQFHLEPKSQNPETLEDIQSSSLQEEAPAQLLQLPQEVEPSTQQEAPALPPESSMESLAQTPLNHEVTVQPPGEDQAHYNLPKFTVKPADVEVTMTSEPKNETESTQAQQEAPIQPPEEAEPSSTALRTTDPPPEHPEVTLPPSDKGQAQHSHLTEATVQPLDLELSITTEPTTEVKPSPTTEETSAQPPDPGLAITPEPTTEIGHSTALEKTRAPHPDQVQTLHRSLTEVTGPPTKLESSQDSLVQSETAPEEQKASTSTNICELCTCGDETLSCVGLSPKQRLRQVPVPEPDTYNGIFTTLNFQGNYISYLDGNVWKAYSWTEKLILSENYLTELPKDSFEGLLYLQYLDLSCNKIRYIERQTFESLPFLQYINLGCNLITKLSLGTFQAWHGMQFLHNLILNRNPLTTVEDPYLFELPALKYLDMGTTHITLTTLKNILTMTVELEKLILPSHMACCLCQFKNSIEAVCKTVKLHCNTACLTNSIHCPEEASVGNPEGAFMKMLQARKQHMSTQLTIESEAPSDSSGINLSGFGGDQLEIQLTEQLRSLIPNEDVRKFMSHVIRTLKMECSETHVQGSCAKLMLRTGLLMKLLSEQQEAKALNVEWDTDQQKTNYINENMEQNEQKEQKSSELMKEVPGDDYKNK

Binder | Kd [1] [nM] | Kd [2] [nM] | Kd [3] [nM] | Kd [4] [nM]
B1 | 1.18 ± 0.28 | 49.83 ± 0.261 | 1.1 ± 0.261 | –
B2 | – | – | – | 530

— publication PMC10754148 (Cell, 2023)
